Data set [1] deals with T1, L3MBTL3–SAM (residues 705–773) (UniProt Q96JM7 705-773).
T1 sequence (looked up): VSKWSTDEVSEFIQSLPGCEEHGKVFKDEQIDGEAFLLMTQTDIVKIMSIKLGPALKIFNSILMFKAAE
Description: SEC.

The data set “negative-staining EM” deals with the molecule itself. Description: negative-staining EM.

B1: SAMD1–SAM (residues 459–523 with L495R mutation) (domain or fragment, human, UniProt Q6SPF0 459-523, looked up)
chain: PVEWTVMDVVEYFTEAGFPEQATAFQEQEIDGKSLLRMQRTDVLTGLSIRLGPALKIYEHHIKVL
With B1, the binding result in data set [1] was “binds”.

B2: wild-type full-length SAMD1 (natural protein, human, UniProt Q6SPF0 1-538, looked up)
chain: MAGPPALPPPETAAAATTAAAASSSAASPHYQEWILDTIDSLRSRKARPDLERICRMVRRRHGPEPERTRAELEKLIQQRAVLRVSYKGSISYRNAARVQPPRRGATPPAPPRAPRGAPAAAAAAAPPPTPAPPPPPAPVAAAAPARAPRAAAAAATAPPSPGPAQPGPRAQRAAPLAAPPPAPAAPPAVAPPAGPRRAPPPAVAAREPPLPPPPQPPAPPQQQQPPPPQPQPPPEGGAVRAGGAARPVSLREVVRYLGGSGGAGGRLTRGRVQGLLEEEAAARGRLERTRLGALALPRGDRPGRAPPAASARPSRSKRGGEERVLEKEEEEDDDEDEDEEDDVSEGSEVPESDRPAGAQHHQLNGERGPQSAKERVKEWTPCGPHQGQDEGRGPAPGSGTRQVFSMAAMNKEGGTASVATGPDSPSPVPLPPGKPALPGADGTPFGCPPGRKEKPSDPVEWTVMDVVEYFTEAGFPEQATAFQEQEIDGKSLLLMQRTDVLTGLSIRLGPALKIYEHHIKVLQQGHFEDDDPDGFLG
Take B2: in “negative-staining EM”, the binding result is given as “binds”.
